Source: US20140308283A1 (TORAY INDUSTRIES, published 2014)

T1: CAPRIN-1 protein expressed on the cell membrane surface of human cancer cell lines (human, UniProt Q14444 2-709)
T1 sequence (looked up): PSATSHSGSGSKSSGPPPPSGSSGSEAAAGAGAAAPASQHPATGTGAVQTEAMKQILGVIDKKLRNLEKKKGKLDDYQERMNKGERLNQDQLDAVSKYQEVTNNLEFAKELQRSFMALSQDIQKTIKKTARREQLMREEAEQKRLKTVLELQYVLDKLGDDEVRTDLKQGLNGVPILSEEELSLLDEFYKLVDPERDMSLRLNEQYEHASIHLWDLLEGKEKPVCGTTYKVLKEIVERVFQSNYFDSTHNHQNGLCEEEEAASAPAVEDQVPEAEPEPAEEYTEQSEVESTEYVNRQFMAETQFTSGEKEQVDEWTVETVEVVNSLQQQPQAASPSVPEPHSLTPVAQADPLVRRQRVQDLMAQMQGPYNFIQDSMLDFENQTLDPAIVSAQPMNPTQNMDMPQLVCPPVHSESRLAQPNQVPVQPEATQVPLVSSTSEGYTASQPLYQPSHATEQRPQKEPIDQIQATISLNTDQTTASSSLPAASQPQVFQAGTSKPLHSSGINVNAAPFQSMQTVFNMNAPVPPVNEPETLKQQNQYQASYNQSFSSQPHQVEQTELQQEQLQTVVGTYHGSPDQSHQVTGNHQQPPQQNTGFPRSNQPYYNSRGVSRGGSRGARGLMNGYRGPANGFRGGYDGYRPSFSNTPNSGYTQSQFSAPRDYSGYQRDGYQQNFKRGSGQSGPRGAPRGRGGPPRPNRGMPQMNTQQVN

T2: polypeptide of SEQ ID NO: 266 (human)
T2 peptide: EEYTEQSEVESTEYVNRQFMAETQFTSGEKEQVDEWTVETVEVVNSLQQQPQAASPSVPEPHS

T3: peptide of SEQ ID NO: 267 (human)
T3 peptide: QQPQAASPSVPE


Columns and labels:
[1] = target: T1, CAPRIN-1 protein expressed on the cell …; assay: cell-based or functional assay
[2] = target: T1, CAPRIN-1 protein expressed on the cell …; assay: flow cytometry on Capan-2, MIAPaCa-2, PANC-1 and BxPC-3 cells, vs isotype control
Procedure: Next, four pancreatic cancer cell lines (Capan-2, MIAPaCa-2, PANC-1, and BxPC-3) confirmed to have CAPRIN-1 gene expression were examined for their expression of CAPRIN-1 protein on the cell surface. 10⁶ cells of each cell line were centrifuged in each 1.5-ml microcentrifuge tube. The cancer cell surface-reactive anti-CAPRIN-1 mouse monoclonal antibodies #1 to #22 prepared in Example 4 and the culture supernatant (100 μl) containing the anti-CAPRIN-1 mouse-chicken chimeric antibody #1, #2, or #3 prepared in the preceding paragraph (2) were separately added to the tubes and left standing for 1 hour on ice. After washing with PBS, the cells were suspended in FITC-labeled goat anti-mouse IgG antibodies (manufactured by Invitrogen Corp.) diluted 500-fold with PBS containing 0.1% FBS and left standing for 1 hour on ice. After washing with PBS, the fluorescence intensity was measured using FACSCalibur (Becton, Dickinson and Company). On the other hand, the same operation as above was performed using isotype control antibodies, instead of the anti-CAPRIN-1 mouse monoclonal antibodies #1 to #22 and the culture supernatant containing the mouse-chicken chimeric antibody #1, #2, or #3, to prepare a control. As a result, all the cells supplemented with any of the monoclonal antibodies #1 to #22 and the mouse-chicken chimeric antibodies #1, #2, and #3 had fluorescence intensity at least 20% stronger than that of the control. […] The above rate of enhancement in fluorescence intensity was indicated by the rate of increase in mean fluorescence intensity (MFI) in each cell line and calculated according to the following expression: […]

[3] = target: T2, polypeptide of SEQ ID NO: 266; assay: ELISA on immobilised synthetic CAPRIN-1 peptides
Procedure: (§1) Then, the solution in each well was discarded, and each well was washed six times with PBST.
(§2) A TMB substrate solution (manufactured by Thermo Fisher Scientific Inc.) was added thereto at a concentration of 100 μl/well and left standing for 15 to 30 minutes to cause color reaction. After the color development, the reaction was terminated by the addition of 1 N sulfuric acid at a concentration of 100 μl/well. The absorbance was measured at 450 nm and 595 nm using an absorption spectrometer. As a result, a polypeptide of SEQ ID NO: 266 was identified as a partial CAPRIN-1 sequence recognized by all of the anti-CAPRIN-1 antibodies human-chicken chimeric monoclonal antibody #1 and anti-CAPRIN-1 monoclonal antibodies #1 to #5. In the polypeptide of SEQ ID NO: 266, a peptide of SEQ ID NO: 267 was identified as a partial sequence recognized by the human-chicken chimeric monoclonal antibody #1 and the mouse monoclonal antibodies #3 and #4. In the polypeptide of SEQ ID NO: 266, a peptide of SEQ ID NO: 268 was identified as a partial sequence recognized by the mouse monoclonal antibodies #1, #2, and #5. […] Also, a polypeptide comprising the amino acid sequence of SEQ ID NO: 270 was identified as a partial CAPRIN-1 sequence recognized by all of the anti-CAPRIN-1 monoclonal antibodies #6, #7, and #8. […] In addition, a polypeptide comprising the amino acid sequence of SEQ ID NO: 272 was identified as a partial CAPRIN-1 sequence recognized by all of the anti-CAPRIN-1 monoclonal antibodies #9, #10, and #11. […] In addition, a polypeptide comprising the amino acid sequence of SEQ ID NO: 269 was identified as a partial CAPRIN-1 sequence recognized by the human-chicken chimeric monoclonal antibody #3.

[4] = target: T3, peptide of SEQ ID NO: 267; assay: ELISA on immobilised synthetic CAPRIN-1 peptides
Procedure: as §1, §2

Binder | rate of increase in mean fluorescence intensity [2] [%] | binding result [3] | binding result [4] | cytotoxic activity (ADCC) against MIAPaCa-2 and Capan-2 [1] [%]
human-chicken chimeric antibody #2 (antibody, human IgG1, kappa, V domains shown) VH: AVTLDESGGGLQTPGGGLSLVCKASGFTFSSFDMGWVRQAPGKGLEFVAQINDAGSRTWYATAVKGRATISRDNGQTTVRLQLNNLRAEDTGTYYCTRGSGYVGAGAIDAWGHGTEVIVSA VL: AALTQPSSVSANPGETVKITCSGGSGYYGWYQQQKSPGSAPVTVIYQNDKRPSDIPSRFSGSGSGSTNTLTITGVQAEDEAVYFCGRYDSTDSGIFGAGTTLTVLT |  |  |  | ≥ 10
mouse monoclonal antibody #8 (antibody, V domains shown, Mouse hybridoma antibody; also called anti-CAPRIN-1 mouse monoclonal antibody #8) VH: GGGLVKPGGSLKLSCAASGFAFSSYDMSWIRQTPEKRLEWVAYISSGAGSTYYPDTVKGRFTVSRDNAKNTLYLQMSSLKSEDTAMYYCARHFYRFDYWGQGTTVTVSS VL: SIVMTQTPKFLLVSAGDRITITCKASQSVSNDVAWYQQKPGQSPKLLIYYASNRYTGVPDRFTGSGYGTDFTFTISTVQAEDLAVYFCQQDDRFPLTFGAGPS | ≥ 20 |  |  | ≥ 10
mouse monoclonal antibody #13 (antibody) chain 1: EVQLHQFGAELVKPGASVKISCKASGYTFTDYNMDWVKQSHGKSLEWIGDINPNYDSTSYNQKFKGKATLTVDKSSSTAYMELRSLTSEDTAVYYCARSRSYDYEGFAYWGQGTLVTVSAAKTTPPSVY chain 2: AVLRCSRGLLVIWISDIQLTQSPSSLAVTAGEKVTMSCKSSQSLLWSVNQKNYLSWYQQKQRQPPKLLIYGASIRESWVPDRFTGSGSGTDFTLTISNVHAEDLAVYYCQHNHGSFLPSRSEQVPSWRSNNR | ≥ 20 |  |  | ≥ 10
mouse monoclonal antibody #3 (antibody, V domains shown) VH: GGGLVKPGGSLKLSCAASGFTFSSYGMSWVRQTPEKRLEWVATISSGGSYTYYPDSVKGRFTISRDNAKNTLYLQMSSLRSEDTAMYYCASLASYYFDYWGQGTTLTVSS VL: not shown | ≥ 20 |  |  | ≥ 10
human-chicken chimeric antibody #1 (antibody, human IgG1, kappa, V domains shown, also called human-chicken chimeric monoclonal antibody #1) VH: AVTLDESGGGLQMSRGGLSLVCKASGFDFSSYQMNWIRQAPGKGLEFVAAINKFGNSTGHGAAVKGRVTISRDNGQSTVRLQLNNLRAEDTAIYFCTKHAYGYCGSGTWCAAGEIDAWGHGTEVIVSS VL: QAASTQPSSVSANPGETVEITCSGGGSYSYGWFQQKSPGSAPVTVIYYNNKRPSDIPSRFSGSKSGSTGTLTITGVQADDEAVYYCGSGDSTDTAVFGAGTTLTVLG |  | binds | binds | 
mouse monoclonal antibody #6 (antibody) chain 1: DAELVKPGASVKISCKASGYTFTDHSIHWVQQKPEQGLEWIGYISPGNGNIKYNEKFKGKATLTADKSSSTAYMQLNSLTSEDSAVYFCKRSLGRGGPYYFDYWGQGTTVTVSS chain 2: DIVLTQAAPSLPVTPGESVSISCRSSKSLLHSNGNTYLYWFLQRPGQSPQLLIYRMSNLASGVPDRFSGSGSGTAFTLRISRVEAEDVGVYYCMQHREYPVTFGSGPN | ≥ 20 |  |  | ≥ 10
mouse monoclonal antibody #12 (antibody, V domains shown, Mouse hybridoma antibody; also called anti-CAPRIN-1 mouse monoclonal antibody #12) VH: EVQLHQFGAELVKPGASVKISCKASGYTFTDYNMDWVKQSHGKSLEWIGDINPNYDSTSYNQKFKGKATLTVDKSSSTAYMELRSLTSEDTAVYYCARSRSYDYEGFAYWGQGTLVTVSA VL: DIQMTQSPASLSASVGETVTITCRASGNIHNYLAWYQQKQGKSPQLLVYNAKTLADGVPSRFSGSGSGTQYSLKINSLQPEDFGSYYCQHFWSTLTFGAGTKLELKR | ≥ 20 |  |  | ≥ 10
mouse monoclonal antibody #15 (antibody, V domains shown, Mouse hybridoma antibody; also called anti-CAPRIN-1 mouse monoclonal antibody #15) VH: EVQLHQFGAELVKPGASVKISCKASGYTFTDYNMDWVKQSHGKSLEWIGDINPNYDSTSYNQKFKGKATLTVDKSSSTAYMELRSLTSEDTAVYYCARSRSYDYEGFAYWGQGTLVTVSA VL: SGDRVSLSCRASQSISNYLHWYQQKSHESPRLLIKYASQSISGIPSRFSGSGSGTDFTLSINSVETEDFGMYFCQQSNSWPYTFGAGTKLEIKQ | ≥ 20 |  |  | ≥ 10
mouse monoclonal antibody #14 (antibody, V domains shown, Mouse hybridoma antibody; also called anti-CAPRIN-1 mouse monoclonal antibody #14) VH: EVQLHQFGAELVKPGASVKISCKASGYTFTDYNMDWVKQSHGKSLEWIGDINPNYDSTSYNQKFKGKATLTVDKSSSTAYMELRSLTSEDTAVYYCARSRSYDYEGFAYWGQGTLVTVSA VL: DIQLTQSPASLSASVGETVTITCRASGNIHNYLAWYQQKQGKSPQLLVYNAKTLADGVPSRFSGSGSGTQYSLKINSLQPEDFGSYYCQHFWSTLTFGGGTKLEIK | ≥ 20 |  |  | ≥ 10

The next lines start with results.

rate of increase in mean fluorescence intensity [2] [%] | binding result [3] | binding result [4] | Binder | cytotoxic activity (ADCC) against MIAPaCa-2 and Capan-2 [1] [%]
≥ 20 |  |  | mouse-chicken chimeric antibody #2 (antibody, mouse IgG1, V domains shown, also called anti-CAPRIN-1 mouse-chicken chimeric antibody #2) VH: AVTLDESGGGLQTPGGGLSLVCKASGFTFSSFDMGWVRQAPGKGLEFVAQINDAGSRTWYATAVKGRATISRDNGQTTVRLQLNNLRAEDTGTYYCTRGSGYVGAGAIDAWGHGTEVIVS VL: AALTQPSSVSANPGETVKITCSGGSGYYGWYQQQKSPGSAPVTVIYQNDKRPSDIPSRFSGSGSGSTNTLTITGVQAEDEAVYFCGRYDSTDSGIFGAGTTLTVL | 
≥ 20 |  |  | mouse-chicken chimeric antibody #1 (antibody, mouse IgG1, V domains shown, from CHO-K1 culture supernatant; also called anti-CAPRIN-1 mouse-chicken chimeric antibody #1) VH: AVTLDESGGGLQMSRGGLSLVCKASGFDFSSYQMNWIRQAPGKGLEFVAAINKFGNSTGHGAAVKGRVTISRDNGQSTVRLQLNNLRAEDTAIYFCTKHAYGYCGSGTWCAAGEIDAWGHGTEVIVSS VL: QAASTQPSSVSANPGETVEITCSGGGSYSYGWFQQKSPGSAPVTVIYYNNKRPSDIPSRFSGSKSGSTGTLTITGVQADDEAVYYCGSGDSTDTAVFGAGTTLTVLG | 
≥ 20 |  |  | mouse monoclonal antibody #18 (antibody, V domains shown, Mouse hybridoma antibody; also called anti-CAPRIN-1 mouse monoclonal antibody #18) VH: LQESGAELARPGASVKLSCKASGYTFTSYWMQWVKQRPGQGLEWIGAIYPGDGDTRYTQKFKGKATLTADKSSSTAYMQLSSLASEDSAVYYCARGEYGNYFAYWGQGTTVTVSS VL: TSDASLGERVTITCKASQDINSYLSWFQQKPGKSPKTLIYRANRLVDGVPSRFSGSGSGQDYSLTISSLEYEDMGIYYCLQYDEFPLTFGGGTKLEIKQ | ≥ 10
≥ 20 |  |  | mouse-chicken chimeric antibody #3 (antibody, mouse IgG1, V domains shown, also called anti-CAPRIN-1 mouse-chicken chimeric antibody #3) VH: AVTLDESGGGLQTPGGALSLVCKASGFTFSGYDMLWVRQAPGKGLEWVAGIGSTGGGTDYGAAVKGRATISRDNGQSTVRLQLNNLRAEDTATYYCAKVAGGCNSGYCRDSPGSIDAWGHGTEVIVS VL: AVTQQPASVSANPGETVKITCSGGGSRNYYGWYQQKSPGSVPVTVIYYDDQRPSNIPSRFSGALSGSTSTLTITGVQADDEAVYFCGSADSNTYEGSFGAGTTLTVL | 
